Laboratory results published in publication PMC9867282.

target: cytosolic carboxypeptidase 6 (CCP6), endogenous (human (endogenous in HEK 293T)) (UniProt Q5VU57); assay: proximity ligation; Duolink PLA in HEK 293T cells fixed with 4% paraformaldehyde; primary antibodies against the two proteins; confocal microscopy; three independent experiments, at least 75 cells in total
Sequence of UniProt Q5VU57 (Q5VU57 whole entry): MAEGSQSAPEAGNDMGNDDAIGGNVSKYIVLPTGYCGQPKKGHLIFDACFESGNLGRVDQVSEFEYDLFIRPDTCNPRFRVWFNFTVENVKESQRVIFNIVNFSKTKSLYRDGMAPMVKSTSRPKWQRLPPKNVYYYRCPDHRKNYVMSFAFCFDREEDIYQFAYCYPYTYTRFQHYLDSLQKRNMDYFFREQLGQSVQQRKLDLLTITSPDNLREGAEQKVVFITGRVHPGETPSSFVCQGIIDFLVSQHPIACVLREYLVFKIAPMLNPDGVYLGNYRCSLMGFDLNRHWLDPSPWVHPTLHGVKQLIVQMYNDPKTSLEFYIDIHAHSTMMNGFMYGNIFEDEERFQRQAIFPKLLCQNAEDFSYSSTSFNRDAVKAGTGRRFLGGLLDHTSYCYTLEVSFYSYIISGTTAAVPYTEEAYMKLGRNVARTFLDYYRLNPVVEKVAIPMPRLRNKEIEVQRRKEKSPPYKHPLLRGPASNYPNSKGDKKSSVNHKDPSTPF

Question: Which percent of cells with a positive PLA signal does the source give for “NudC (from UniProt Q9Y266 1-331) (natural protein)” here?
Answer: 52%

Question: “Progesterone-induced-blocking factor 1 PIBF1 (from UniProt Q8WXW3 1-757) (natural protein)” was tested. Which percent of cells with a positive PLA signal did it give?
Answer: 37%

Question: Which percent of cells with a positive PLA signal does the source give for “Pericentriolar material 1 protein PCM1 (from UniProt Q15154 1-2024) (natural protein)” here?
Answer: 73%
